Series [1] deals with T1, biotin-conjugated bovine serum albumin (bovine, UniProt P02769 25-607).
T1 construct: Immobilised on a CM5 sensor chip; also called biotinylated bovine serum albumin (BSA)
In words: SPR (BIAcoreX), biotin-conjugated BSA immobilised on CM5 chip, mutein in solution. Here is the method: (§1) The kinetic parameters (both on- and off-rates for interaction with biotin) of streptavidin muteins were determined in real time using the surface plasmon resonance based BIAcoreX biosensor. Biotin-conjugated bovine serum albumin immobilized on CM5 sensor chip was used to study the reversibility of biotin binding (Qureshi, 2001).
On the technique in general: SPR reads the build-up and loss of mass on a sensor chip optically.

Series [2] concerns the molecule itself. In words: SDS-PAGE/Western blot of non-boiled culture supernatant, 20 uM biotin in medium; self-association of subunits. Here is the method:
FIG. 3: Western blot analysis of cell culture supernatants from B. subtilis strains producing streptavidin muteins carrying a single mutation. 15 μl of non-boiled sample of culture supernatant was loaded to each lane. Samples on the left set were collected from B. subtilis strains cultured in super-rich medium without additional supplement of biotin. Samples on the right set were collected from B. subtilis strains cultured in super-rich medium with additional supplementation of biotin (20 μM). The blot was probed with polyclonal antibodies against streptavidin and developed using 4-chloro-1-napthol (Bio-Rad) as the colour development agent. […] M, molecular weight markers; wt, wild type streptavidin.
FIG. 4: Analysis of culture supernatants from B. subtilis strains producing streptavidin muteins carrying different combinations of mutations. All these strains were cultivated in super-rich medium supplemented with biotin (20 μM). The 15 μl of non-boiled samples of culture supernatants were loaded. FIG. 4A. Coomassie blue stained SDS-polyacrylamide gel. Bands corresponding to tetrameric and monomeric streptavidin are marked by an asterisk and an arrowhead, respectively. FIG. 4B. Western blot probed with polyclonal antibodies against streptavidin. […]
In general terms: Immunoblotting shows a protein as a band on a membrane.

Series [3] concerns the molecule itself. In words: SDS-PAGE/Western blot of non-boiled culture supernatant; self-association of subunits.
For series [4], the target named is T1, biotin-conjugated bovine serum albumin. As to the kind of experiment: SPR (BIAcoreX), biotin-conjugated BSA immobilised on CM5 chip, mutein in solution; Kd = kd/ka. Here is the method:
as §1

T1 sequence (P02769 25-607 limits assumed): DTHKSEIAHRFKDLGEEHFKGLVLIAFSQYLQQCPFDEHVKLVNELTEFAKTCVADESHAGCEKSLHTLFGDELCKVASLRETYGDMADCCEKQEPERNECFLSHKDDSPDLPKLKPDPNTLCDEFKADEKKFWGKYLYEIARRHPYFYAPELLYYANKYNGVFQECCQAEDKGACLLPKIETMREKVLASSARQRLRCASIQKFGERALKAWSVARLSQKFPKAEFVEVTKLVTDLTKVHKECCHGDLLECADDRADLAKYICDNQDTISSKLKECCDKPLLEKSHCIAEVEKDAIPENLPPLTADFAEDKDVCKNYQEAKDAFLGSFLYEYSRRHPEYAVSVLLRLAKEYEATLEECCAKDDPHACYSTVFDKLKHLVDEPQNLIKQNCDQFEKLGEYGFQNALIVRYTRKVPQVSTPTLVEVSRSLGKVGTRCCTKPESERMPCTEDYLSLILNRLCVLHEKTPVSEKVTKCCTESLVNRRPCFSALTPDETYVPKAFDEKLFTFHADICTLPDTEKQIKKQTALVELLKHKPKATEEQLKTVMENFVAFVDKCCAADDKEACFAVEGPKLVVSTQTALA

B1: streptavidin mutein M4 (T76R, V125R, V55T, L109T), secreted by B. subtilis (other)
chain: DPSKDSKAQVSAAEAGITGTWYNQLGSTFIVTAGADGALTGTYESAVGNAESRYTLTGRYDSAPATDGSGTALGWRVAWKNNYRNAHSATTWSGQYVGGAEARINTQWTLTSGTTEANAWKSTLRGHDTFTKVKPSAASIDAAKKAGVNNGNPLDAVQQ
notes: Monomeric in solution; also called M4 mutein
By koff is commonly meant the first-order rate constant of dissociation. Broadly, the kon is a measure of how fast the partners come together. A higher kon goes with fast association. Usually Kd stands for the equilibrium constant for the complex coming apart. As for B1, in series [1], the koff is 0.00339 s⁻¹ and the kon came out at 18000 M⁻¹ s⁻¹. Further, the “% tetramer, with additional biotin” value in series [2] stood at 0%. In addition, in series [3], the “% tetramer, no additional biotin” value was found to be 0%. The molecule also yielded a Kd in series [4] of 187 nM.

The record behind these values is patent publication US20060246519A1 (UTI LIMITED PARTNERSHIP, published 2006).
